Assay results published in publication PMC9888390 (2023).

Target: Recombinant HSV-1 glycoprotein B, soluble ectodomain (HSV-1)
Assay: Luminex binding assay

B1: BMPC-23 recombinant mouse IgG (antibody, V domains shown)
VH: QVQLQQSGPELVKPGASVKLSCKASGYSFTTYDINWVKERPGQGLEWIGWIYPREGSTNYNEKFRGKATLTADTSSSTAYMELHSLTSEDSAVYFCATYGSSRYYTMDYWGQGTSVTVSS
VL: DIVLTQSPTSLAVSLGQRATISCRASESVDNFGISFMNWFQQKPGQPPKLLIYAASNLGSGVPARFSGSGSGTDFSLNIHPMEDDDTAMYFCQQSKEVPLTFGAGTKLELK
  EC50: 3.5 ng/mL
